Measured values reported in the supplement of paper PMC10598134.
± gives the standard deviation.

Experiment: collision cross section of modified peptide (TIMS, N2, iRT-aligned); higher = larger / more extended gas-phase ion
In short: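 Collision cross section was derived from the Mason-Schamp equation. Each value averages 1–3 technical replicates of the most abundant feature per charge state, measured on a timsTOF Pro/HT in dda-PASEF mode (nitrogen, ~2.4 mbar) after a 120-min nanoflow C18 gradient at 60 °C. Synthetic peptide pools (~100 fmol/µL in 2% acetonitrile/0.1% formic acid, iRT standard spiked 1:40) were identified with MaxQuant, and 1/K0 was calibrated with three reference ions and aligned run-wise to the median iRT peptide deviation.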

[1] = charge state: 2, modification: Crotonyl
[2] = charge state: 2, modification: Propionyl
[3] = charge state: 2, modification: Acetyl (K)
[4] = charge state: 2, modification: Succinyl
[5] = charge state: 3, modification: Succinyl
[6] = charge state: 2, modification: Citrullination (R)
[7] = charge state: 3, modification: Citrullination (R)
[8] = charge state: 2, modification: GlyGly (K)
[9] = charge state: 3, modification: GlyGly (K)
[10] = charge state: 2, modification: hydroxyisobutyryl
[11] = charge state: 2, modification: Trimethyl (K)
[12] = charge state: 3, modification: Trimethyl (K)
[13] = charge state: 2, modification: HexNAc (ST)
[14] = charge state: 2, modification: Malonyl
[15] = charge state: 3, modification: Malonyl
[16] = charge state: 2, modification: Nitro (Y)
[17] = charge state: 3, modification: HexNAc (ST)
[18] = charge state: 3, modification: Nitro (Y)
[19] = charge state: 2, modification: Formyl
[20] = charge state: 2, modification: Butyryl
[21] = charge state: 3, modification: Crotonyl
[22] = charge state: 2, modification: Dimethyl (K)
[23] = charge state: 3, modification: Dimethyl (K)
[24] = charge state: 3, modification: Methyl (R)
[25] = charge state: 2, modification: Biotin
[26] = charge state: 3, modification: Butyryl

TLQKQSVVYGGK [_TLQK(Crotonyl)QSVVYGGK_] showed a collision cross section [1] of 396.64 ± 0.8 Å².

“SSGPGGQNVNKVNSK [_SSGPGGQNVNK(Propionyl)VNSK_]” showed a collision cross section [2] of 404.47 ± 0.49 Å².

In the case of “SGKFTQQDIDEAK [_SGK(Crotonyl)FTQQDIDEAK_]”, the collision cross section [1] is reported as 419.28 ± 0.55 Å².

DHLSDKESK [_DHLSDK(Acetyl (K))ESK_] showed a collision cross section [3] of 350.98 ± 1.6 Å².

Sequence ITGKNQVTATK [_ITGK(Succinyl)NQVTATK_] has a collision cross section [4] of 364.93 ± 0.74 Å² and a collision cross section [5] of 446.25 Å².

Sequence “GSYLGGYSAGRGIYSR [_GSYLGGYSAGR(Citrullination (R))GIYSR_]” has a collision cross section [6] of 429.9 ± 0.2 Å² and a collision cross section [7] of 475.97 ± 0.76 Å².

Sequence “GTITVSAQELKDNR [_GTITVSAQELK(GlyGly (K))DNR_]” has a collision cross section [8] of 442.89 ± 0.96 Å² and a collision cross section [9] of 487.43 ± 0.34 Å².

Work on “AGQKLIDVNHYAK [_AGQK(hydroxyisobutyryl)LIDVNHYAK_]” yielded a collision cross section [10] of 436.67 ± 0.29 Å² and a collision cross section (charge state: 3, modification: hydroxyisobutyryl) of 483.82 ± 2.8 Å².

In the case of ITGKNQVTATK [_ITGK(Crotonyl)NQVTATK_], the collision cross section [1] is reported as 369.54 ± 0.26 Å².

For “SEASSEFAKK [_SEASSEFAK(Trimethyl (K))K_]”, the collision cross section [11] was 361.14 ± 0.6 Å² and the collision cross section [12] was 431.4 ± 4.5 Å².

“INNFSADIKDSK [_INNFSADIK(Trimethyl (K))DSK_]” showed a collision cross section [11] of 411.01 ± 0.61 Å² and a collision cross section [12] of 459.74 ± 1.8 Å².

For IVNVSLADLR [_IVNVS(HexNAc (ST))LADLR_], the collision cross section [13] was 388.29 ± 1.2 Å².

With “ANEKTESSSAQQVAVSR [_ANEK(Malonyl)TESSSAQQVAVSR_]” the collision cross section [14] was 438.58 ± 1 Å² and the collision cross section [15] was 534.15 ± 1.9 Å².

Work on “YSRGAGLGFSTAPNK [_YSR(Citrullination (R))GAGLGFSTAPNK_]” yielded a collision cross section [6] of 397.83 ± 0.22 Å².

With IISSIEQKEENK [_IISSIEQK(Crotonyl)EENK_] the collision cross section [1] was 407.53 ± 0.9 Å².

Work on HGVYNPNK [_HGVY(Nitro (Y))NPNK_] yielded a collision cross section [16] of 338.11 ± 3.3 Å².

Work on “TSAVSSQANSQPPVQVSVK [_T(HexNAc (ST))SAVSSQANSQPPVQVSVK_]” yielded a collision cross section [17] of 513.92 Å².

In the case of “ASTPGAAAQIQEVK [_AS(HexNAc (ST))TPGAAAQIQEVK_]”, the collision cross section [13] is reported as 409.94 ± 0.76 Å².

Sequence “GFALVGVGSEASSKK [_GFALVGVGSEASSK(Malonyl)K_]” has a collision cross section [14] of 414.22 ± 0.58 Å².

DYGNSPLHR [_DY(Nitro (Y))GNSPLHR_] gave a collision cross section [16] of 341.59 ± 0.55 Å² and a collision cross section [18] of 437.8 ± 1.2 Å².

“DYSSGFGGKYGVQADR [_DYSSGFGGK(Formyl)YGVQADR_]” showed a collision cross section [19] of 429.11 ± 0.79 Å².

For “EEKPAVTAAPK [_EEKPAVT(HexNAc (ST))AAPK_]”, the collision cross section [13] was 383.27 ± 0.13 Å² and the collision cross section [17] was 484.12 ± 0.17 Å².

“DAEAAEATAEGALKAEK [_DAEAAEATAEGALK(GlyGly (K))AEK_]” showed a collision cross section [8] of 475 ± 1.6 Å² and a collision cross section [9] of 538.51 ± 1.1 Å².

Work on ASCLYGQLPK [_ASCLY(Nitro (Y))GQLPK_] yielded a collision cross section [16] of 365.43 ± 2.1 Å².

In the case of “AAYQAAIRGVGSAQSR [_AAYQAAIR(Citrullination (R))GVGSAQSR_]”, the collision cross section [6] is reported as 418.72 ± 0.97 Å² and the collision cross section [7] is reported as 501.27 ± 7.8 Å².

With “DYSQPTAAATVQDIK [_DYSQPTAAAT(HexNAc (ST))VQDIK_]” the collision cross section [13] was 449.73 ± 0.61 Å².

For “ISALQGKLSK [_ISALQGK(Trimethyl (K))LSK_]”, the collision cross section [11] was 359.1 ± 0.6 Å² and the collision cross section [12] was 419.39 ± 1.8 Å².

In the case of “TGGTQTDLFTCGKCK [_TGGTQTDLFTCGK(Butyryl)CK_]”, the collision cross section [20] is reported as 444.65 Å².

Work on “GRGYFEHR [_GR(Citrullination (R))GYFEHR_]” yielded a collision cross section [6] of 339.49 ± 1.6 Å² and a collision cross section [7] of 411.67 ± 1.3 Å².

Work on “SSGPGGQNVNKVNSK [_SSGPGGQNVNK(Succinyl)VNSK_]” yielded a collision cross section [4] of 404.66 ± 0.55 Å² and a collision cross section [5] of 443.1 ± 4 Å².

In the case of “SKLLFSNTAAQK [_SK(hydroxyisobutyryl)LLFSNTAAQK_]”, the collision cross section [10] is reported as 404.35 ± 0.3 Å².

Sequence GSLEKGSPEDK [_GSLEK(Propionyl)GSPEDK_] has a collision cross section [2] of 368.76 ± 0.94 Å².

“DYSAPVNFISAGLKK [_DYSAPVNFISAGLK(Crotonyl)K_]” gave a collision cross section [1] of 438.67 ± 0.84 Å² and a collision cross section [21] of 525.96 ± 1.3 Å².

YVGESEANIR [_Y(Nitro (Y))VGESEANIR_] gave a collision cross section [16] of 357.77 ± 0.55 Å².

Sequence HIGFVYHPTK [_HIGFVY(Nitro (Y))HPTK_] has a collision cross section [16] of 375.77 ± 0.17 Å² and a collision cross section [18] of 448.27 ± 1.8 Å².

Sequence GVQYLNEIK [_GVQY(Nitro (Y))LNEIK_] has a collision cross section [16] of 353.34 ± 0.19 Å².

Work on “FPGVGVLPGVPTGAGVK [_FPGVGVLP(Hydroxyproline)GVPTGAGVK_]” yielded a collision cross section (charge state: 2, modification: Hydroxyproline) of 432.68 ± 8.7 Å² and a collision cross section (charge state: 3, modification: Hydroxyproline) of 504.05 ± 5.9 Å².

In the case of “IVSGKDYNVTANSK [_IVSGK(Dimethyl (K))DYNVTANSK_]”, the collision cross section [22] is reported as 404.57 ± 0.47 Å² and the collision cross section [23] is reported as 462.9 ± 1.6 Å².

Work on “HGGSGGRGVSVSSAR [_HGGSGGR(Methyl (R))GVSVSSAR_]” yielded a collision cross section [24] of 477.29 ± 1.5 Å².

Sequence ASDTSSETVFGKR [_ASDTSSETVFGK(Biotin)R_] has a collision cross section [25] of 406.15 Å².

LAEEENKAK [_LAEEENK(Formyl)AK_] gave a collision cross section [19] of 342.64 ± 1.5 Å².

Sequence “VTRYPILGIPQAHR [_VTR(Methyl (R))YPILGIPQAHR_]” has a collision cross section [24] of 524.3 ± 0.78 Å².

For “FGRGTGLTQPSQR [_FGR(Citrullination (R))GTGLTQPSQR_]”, the collision cross section [6] was 390.81 ± 0.16 Å².

Work on “LLIVSTTPYSEKDTK [_LLIVSTTPYSEK(Dimethyl (K))DTK_]” yielded a collision cross section [22] of 459.41 ± 1.9 Å² and a collision cross section [23] of 505.24 ± 1.6 Å².

ASEALLKQLK [_ASEALLK(Butyryl)QLK_] gave a collision cross section [20] of 379.45 ± 0.72 Å².

Sequence “GVPRGVHLGSQGLQR [_GVPR(Methyl (R))GVHLGSQGLQR_]” has a collision cross section [24] of 492.74 ± 2.1 Å².

Sequence “VYIASSSGSTAIKK [_VYIASSSGSTAIK(Biotin)K_]” has a collision cross section [25] of 429.83 Å².

With “STGLELETPSLVPVKK [_STGLELETPSLVPVK(Succinyl)K_]” the collision cross section [4] was 449.72 ± 9.5 Å² and the collision cross section [5] was 499.21 ± 23 Å².

“DESFLGKLGGTLAR [_DESFLGK(Acetyl (K))LGGTLAR_]” gave a collision cross section [3] of 410.82 ± 1.1 Å² and a collision cross section (charge state: 3, modification: Acetyl (K)) of 491.27 Å².

Work on “IDLPAENSNSETIIITGKR [_IDLPAENSNSETIIITGK(Dimethyl (K))R_]” yielded a collision cross section [23] of 568.21 ± 0.55 Å².

With “ANEKTESSSAQQVAVSR [_ANEK(Trimethyl (K))TESSSAQQVAVSR_]” the collision cross section [12] was 495.46 ± 1.6 Å².

Sequence “GADFLVTEVENGGSLGSKK [_GADFLVTEVENGGSLGSK(Dimethyl (K))K_]” has a collision cross section [23] of 539.44 Å².

For TTEETSKPK [_TTEETSK(Crotonyl)PK_], the collision cross section [1] was 346.33 ± 11 Å².

In the case of “GSLEKGSPEDK [_GSLEK(Dimethyl (K))GSPEDK_]”, the collision cross section [22] is reported as 362.2 ± 0.83 Å² and the collision cross section [23] is reported as 433.68 ± 2.1 Å².

In the case of “VGEFSGANKEK [_VGEFSGANK(Trimethyl (K))EK_]”, the collision cross section [11] is reported as 384.48 ± 1.7 Å² and the collision cross section [12] is reported as 437.18 ± 7.5 Å².

Sequence “IHNAENIQPGEQKYEYK [_IHNAENIQPGEQK(Butyryl)YEYK_]” has a collision cross section [26] of 530.34 ± 2.7 Å².

For “GGPGGELPRGPQAGLGPR [_GGPGGELPR(Methyl (R))GPQAGLGPR_]”, the collision cross section [24] was 497.33 ± 2 Å².

FHYQDQEFLK [_FHY(Nitro (Y))QDQEFLK_] showed a collision cross section [16] of 402.47 ± 0.18 Å² and a collision cross section [18] of 452.15 ± 1.1 Å².

“HELQANCYEEVKDR [_HELQANCYEEVK(Butyryl)DR_]” showed a collision cross section [20] of 452.47 ± 0.51 Å² and a collision cross section [26] of 502.99 ± 3.8 Å².

“VDVEVPDVSLEGPEGKLK [_VDVEVPDVSLEGPEGK(GlyGly (K))LK_]” gave a collision cross section [8] of 462.5 ± 0.94 Å² and a collision cross section [9] of 497.08 ± 1.1 Å².

“SKHLQEQLNELK [_SK(Trimethyl (K))HLQEQLNELK_]” gave a collision cross section [11] of 417.87 Å² and a collision cross section [12] of 506.13 ± 1.6 Å².

Sequence “IVFSGNLFQHQEDSKK [_IVFSGNLFQHQEDSK(Butyryl)K_]” has a collision cross section [20] of 504.05 ± 1 Å² and a collision cross section [26] of 542.63 ± 1.2 Å².

With “VDVEVPDVSLEGPEGKLK [_VDVEVPDVSLEGPEGK(Malonyl)LK_]” the collision cross section [14] was 466.73 ± 0.63 Å² and the collision cross section [15] was 496.84 Å².

With “LLRGVGGSHGR [_LLR(Citrullination (R))GVGGSHGR_]” the collision cross section [6] was 372.77 ± 0.65 Å² and the collision cross section [7] was 442.38 ± 1.8 Å².

In the case of “ITLSKHQNVQLPR [_ITLSK(GlyGly (K))HQNVQLPR_]”, the collision cross section [8] is reported as 441.27 Å² and the collision cross section [9] is reported as 493.46 ± 2 Å².

Sequence “DDSFLGKLGGTLAR [_DDSFLGK(Crotonyl)LGGTLAR_]” has a collision cross section [1] of 415.37 ± 0.28 Å² and a collision cross section [21] of 492.69 Å².

With “DSRGGGGNFGPGPGSNFR [_DSR(Citrullination (R))GGGGNFGPGPGSNFR_]” the collision cross section [7] was 470.03 ± 5.1 Å².

With “VLDSGAPIKIPVGPETLGR [_VLDSGAPIK(Methyl (K))IPVGPETLGR_]” the collision cross section (charge state: 3, modification: Methyl (K)) was 510.82 ± 2.8 Å².
